Laboratory results: US12528864 (GlaxoSmithKline, dated 2026)

Key:
[1] = biological target: T1, human CD96v2 expressed on cells (CHO cells; transiently transfected HEK cells) (human, UniProt P40200-2 22-569); assay: flow cytometry, inhibition of human CD155-Fc-AF647 binding to CHO cells expressing human CD96v2; competitor CD155-Fc
T1 construct: whole, on cells; the cell is named under assay; also called CHO-huCD96; hCD96v2
T1 sequence (looked up): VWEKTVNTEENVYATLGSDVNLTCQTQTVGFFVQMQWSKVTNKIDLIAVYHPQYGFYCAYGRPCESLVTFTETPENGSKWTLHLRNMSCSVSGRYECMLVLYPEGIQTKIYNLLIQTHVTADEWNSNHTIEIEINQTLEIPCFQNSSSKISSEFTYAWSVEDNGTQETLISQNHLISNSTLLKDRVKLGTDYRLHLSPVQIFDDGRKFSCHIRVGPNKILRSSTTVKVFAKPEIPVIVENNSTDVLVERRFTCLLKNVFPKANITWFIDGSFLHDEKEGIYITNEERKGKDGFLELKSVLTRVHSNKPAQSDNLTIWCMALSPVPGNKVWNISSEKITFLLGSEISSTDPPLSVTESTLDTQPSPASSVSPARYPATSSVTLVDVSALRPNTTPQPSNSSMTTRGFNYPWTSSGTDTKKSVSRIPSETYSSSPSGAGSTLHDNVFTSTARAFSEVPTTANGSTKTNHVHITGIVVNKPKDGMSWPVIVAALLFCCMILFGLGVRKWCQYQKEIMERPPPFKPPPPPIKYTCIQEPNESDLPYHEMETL

[2] = biological target: T1, human CD96v2 expressed on cells (CHO …); assay: flow cytometry on CHO cells expressing human CD96v2
[3] = biological target: T2, cynomolgus monkey CD96v2 expressed on cells (CHO cells; transiently transfected HEK cells) (cynomolgus monkey, UniProt A0A2K5TWV6 22-569); assay: flow cytometry on CHO cells expressing cynomolgus CD96v2
T2 construct: the cell is named under assay; also called CHO-cyCD96; Cyno CD96v2
T2 sequence: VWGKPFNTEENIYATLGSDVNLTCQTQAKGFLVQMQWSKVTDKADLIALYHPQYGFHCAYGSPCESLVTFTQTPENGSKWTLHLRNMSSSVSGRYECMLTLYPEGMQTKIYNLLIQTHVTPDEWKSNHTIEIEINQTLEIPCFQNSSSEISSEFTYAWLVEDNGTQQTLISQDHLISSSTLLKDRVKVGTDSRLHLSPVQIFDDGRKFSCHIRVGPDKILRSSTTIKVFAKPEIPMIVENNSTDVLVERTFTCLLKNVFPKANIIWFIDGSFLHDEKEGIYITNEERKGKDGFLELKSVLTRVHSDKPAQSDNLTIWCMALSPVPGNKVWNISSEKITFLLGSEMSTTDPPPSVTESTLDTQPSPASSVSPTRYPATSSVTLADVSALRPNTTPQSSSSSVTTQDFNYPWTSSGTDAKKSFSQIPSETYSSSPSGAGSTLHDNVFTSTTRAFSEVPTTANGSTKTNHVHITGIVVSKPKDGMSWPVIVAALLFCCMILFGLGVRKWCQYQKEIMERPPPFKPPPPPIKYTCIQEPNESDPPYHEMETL

B1: 42Y073-86F08-16 (antibody)
heavy: not shown
light: DIQLTQSPSSLSASVGDRVTITCRASQSISSYLNWYQQKPGKAPKLLIYAASSLQSGVPSRFSGSGSGTDFTLTISSLQPEDFATYYCQQVLHTITFGGGTKVEIKRTVAAPSVFIFPPSDEQLKSGTASVVCLLNNFYPREAKVQWKVDNALQSGNSQESVTEQDSKDSTYSLSSTLTLSKADYEKHKVYACEVTHQGLSSPVTKSFNRGEC
notes: also called 42Y073-88F08-16
IC50 [1]: 0.78 nM
EC50 [2]: 0.03 nM
EC50 [3]: 0.04 nM

B2: 42Y073-1A01-103 (antibody, V domains shown)
VH: QVQLVQSGAEVKKPGASVKVSCKASGYTFTAYQMHWVRQAPGQGLEWMGIINPAGGWTSYAQKFQGRVTMTRDTSTSTVYMELSSLRSEDTAVYYCARETAYYTTKGNWFDPWGQGTLVTVSS
VL: DIQMTQSPSSLSASVGDRVTITCRASQSISSYLNWYQQKPGKAPKLLIYAASSLQSGVPSRFSGSGSGTDFTLTISSLQPEDFATYYCQQSLYPPRTFGGGTKVEIK
notes: Fully human antibody
IC50 [1]: 0.03 nM
EC50 [2]: 0.02 nM
EC50 [3]: 0.03 nM

B3: 42Y073-86F04-88 (antibody, V domains shown)
VH: QVQLVQSGAEVKKPGSSVKVSCKASGGTFSSSAISWVRQAPGQGLEWMGGIIPIFGRANYAQKFQGRVTITADESTSTAYMELSSLRSEDTAVYYCARLLGESGMDVWGQGTTVTVSS
VL: DIQMTQSPSSLSASVGDRVTITCRASQSISSYLNWYQQKPGKAPKLLIYAASSLQSGVPSRFSGSGSGTDFTLTISSLQPEDFATYYCQQPYFSPPTFGGGTKVEIK
notes: Fully human antibody
IC50 [1]: 0.21 nM
EC50 [2]: 0.05 nM
EC50 [3]: 0.16 nM

B4: 42Y073-86F04-6 (antibody, V domains shown)
VH: QVQLVQSGAEVKKPGSSVKVSCKASGGTFSGHAISWVRQAPGQGLEWMGGIIPIFGRARYAQKFQGRVTITADESTSTAYMELSSLRSEDTAVYYCARLLGESGMDVWGQGTTVTVSS
VL: DIQMTQSPSSLSASVGDRVTITCRASQSISSYLNWYQQKPGKAPKLLIYAASSLQSGVPSRFSGSGSGTDFTLTISSLQPEDFATYYCQQPYFSPPTFGGGTKVEIK
notes: Fully human antibody
IC50 [1]: 0.25 nM
EC50 [2]: 0.06 nM
EC50 [3]: 0.11 nM

B5: 42Y073-86F04-18 (antibody, V domains shown)
VH: QVQLVQSGAEVKKPGSSVKVSCKASGGTFSSRAISWVRQAPGQGLEWMGGIIPIMGTARYAQKFQGRVTITADESTSTAYMELSSLRSEDTAVYYCARLLGESGMDVWGQGTTVTVSS
VL: DIQMTQSPSSLSASVGDRVTITCRASQSISSYLNWYQQKPGKAPKLLIYAASSLQSGVPSRFSGSGSGTDFTLTISSLQPEDFATYYCQQPYFSPPTFGGGTKVEIK
notes: Fully human antibody
IC50 [1]: 0.59 nM
EC50 [2]: 0.07 nM
EC50 [3]: 0.11 nM

B6: 42Y073-1A01-97 (antibody, V domains shown)
VH: QVQLVQSGAEVKKPGASVKVSCKASGYTFTRAAMHWVRQAPGQGLEWMGIINPAGGYTSYAQKFQGRVTMTRDTSTSTVYMELSSLRSEDTAVYYCARETAYYTTKGNWFDPWGQGTLVTVSS
VL: DIQMTQSPSSLSASVGDRVTITCRASQSISSYLNWYQQKPGKAPKLLIYAASSLQSGVPSRFSGSGSGTDFTLTISSLQPEDFATYYCQQSLYPPRTFGGGTKVEIK
notes: Fully human antibody
IC50 [1]: 0.03 nM
EC50 [2]: 0.77 nM
EC50 [3]: 0.02 nM

B7: 42Y073-1A01-191 (antibody, V domains shown)
VH: QVQLVQSGAEVKKPGASVKVSCKASGYTFTKYRMHWVRQAPGQGLEWMGIINPQGGSTSYAQKFQGRVTMTRDTSTSTVYMELSSLRSEDTAVYYCARETAYYTTKGNWFDPWGQGTLVTVSA
VL: DIQMTQSPSSLSASVGDRVTITCRASQSISSYLNWYQQKPGKAPKLLIYAASSLQSGVPSRFSGSGSGTDFTLTISSLQPEDFATYYCQQSLYPPRTFGGGTKVEIK
notes: Fully human antibody
IC50 [1]: 0.03 nM
EC50 [2]: 0.01 nM
EC50 [3]: 0.02 nM

B8: 42Y073-86F04-4 (antibody, V domains shown)
VH: QVQLVQSGAEVKKPGSSVKVSCKASGGTFESEAISWVRQAPGQGLEWMGGIIPIFGRARYAQKFQGRVTITADESTSTAYMELSSLRSEDTAVYYCARLLGESGMDVWGQGTTVTVSS
VL: DIQMTQSPSSLSASVGDRVTITCRASQSISSYLNWYQQKPGKAPKLLIYAASSLQSGVPSRFSGSGSGTDFTLTISSLQPEDFATYYCQQPYFSPPTFGGGTKVEIK
notes: Fully human antibody
IC50 [1]: 0.18 nM
EC50 [2]: 0.04 nM
EC50 [3]: 0.07 nM

B9: 42Y073-86F04-3 (antibody, V domains shown)
VH: QVQLVQSGAEVKKPGSSVKVSCKASGGTFSYNAISWVRQAPGQGLEWMGGIIPIMGTARYAQKFQGRVTITADESTSTAYMELSSLRSEDTAVYYCARLLGESGMDVWGQGTTVTVSS
VL: DIQMTQSPSSLSASVGDRVTITCRASQSISSYLNWYQQKPGKAPKLLIYAASSLQSGVPSRFSGSGSGTDFTLTISSLQPEDFATYYCQQPYFSPPTFGGGTKVEIK
notes: Fully human antibody
IC50 [1]: 0.31 nM
EC50 [2]: 0.04 nM
EC50 [3]: 0.04 nM

B10: 42Y073-1A01-100 (antibody, V domains shown)
VH: QVQLVQSGAEVKKPGASVKVSCKASGYTFTTYRMHWVRQAPGQGLEWMGIINPSGGLTQYAQKFQGRVTMTRDTSTSTVYMELSSLRSEDTAVYYCARETAYYTTKGNWFDPWGQGTLVTVSS
VL: DIQMTQSPSSLSASVGDRVTITCRASQSISSYLNWYQQKPGKAPKLLIYAASSLQSGVPSRFSGSGSGTDFTLTISSLQPEDFATYYCQQSLYPPRTFGGGTKVEIK
notes: Fully human antibody
IC50 [1]: 0.06 nM
EC50 [2]: 0.02 nM
EC50 [3]: 0.04 nM

B11: 42Y073-86F04-5 (antibody, V domains shown)
VH: QVQLVQSGAEVKKPGSSVKVSCKASGGTFSSHAISWVRQAPGQGLEWMGGIIPIFGRGKYAQKFQGRVTITADESTSTAYMELSSLRSEDTAVYYCARLLGESGMDVWGQGTTVTVSS
VL: DIQMTQSPSSLSASVGDRVTITCRASQSISSYLNWYQQKPGKAPKLLIYAASSLQSGVPSRFSGSGSGTDFTLTISSLQPEDFATYYCQQPYFSPPTFGGGTKVEIK
notes: Fully human antibody
IC50 [1]: 0.38 nM
EC50 [2]: 0.05 nM
EC50 [3]: 0.07 nM

B12: 42Y073-1A01-85 (antibody, V domains shown)
VH: QVQLVQSGAEVKKPGASVKVSCKASGYTFTSYPMHWVRQAPGQGLEWMGIINPSGGFTSYAQKFQGRVTMTRDTSTSTVYMELSSLRSEDTAVYYCARETAYYTTKGNWFDPWGQGTLVTVSA
VL: DIQMTQSPSSLSASVGDRVTITCRASQSISSYLNWYQQKPGKAPKLLIYAASSLQSGVPSRFSGSGSGTDFTLTISSLQPEDFATYYCQQSLYPPRTFGGGTKVEIK
notes: Fully human antibody
IC50 [1]: 0.03 nM
EC50 [2]: 0.47 nM
EC50 [3]: 0.01 nM

B13: 42Y073-1A01-126 (antibody, V domains shown)
VH: QVQLVQSGAEVKKPGASVKVSCKASGYTFTRYNMHWVRQAPGQGLEWMGWINPAGGSTSYAQKFQGRVTMTRDTSTSTVYMELSSLRSEDTAVYYCARETAYYTTKGNWFDPWGQGTLVTVSA
VL: DIQMTQSPSSLSASVGDRVTITCRASQSISSYLNWYQQKPGKAPKLLIYAASSLQSGVPSRFSGSGSGTDFTLTISSLQPEDFATYYCQQSLYPPRTFGGGTKVEIK
notes: Fully human antibody
IC50 [1]: 0.1 nM
EC50 [2]: 0.02 nM
EC50 [3]: 0.03 nM

B14: 42Y073-86F04-33 (antibody, V domains shown)
VH: QVQLVQSGAEVKKPGSSVKVSCKASGGTFSSYAISWVRQAPGQGLEWMGGILPIFGRANYAQKFQGRVTITADESTSTAYMELSSLRSEDTAVYYCARLLGESGMDVWGQGTTVTVSS
VL: DIQMTQSPSSLSASVGDRVTITCRASQSISSYLNWYQQKPGKAPKLLIYAASSLQSGVPSRFSGSGSGTDFTLTISSLQPEDFATYYCQQPYFSPPTFGGGTKVEIK
notes: Fully human antibody
IC50 [1]: 0.71 nM
EC50 [2]: 0.04 nM
EC50 [3]: 0.05 nM

B15: 42Y073-86F08-1 (antibody, V domains shown)
VH: QVQLVQSGAEVKKPGSSVKVSCKASGGTFSSYAISWVRQAPGQGLEWMGGIIPIFGTASYAQKFQGRVTITADESTSTAYMELSSLRSEDTAVYYCARGAGYYGDKDPMDVWGQGTTVTVSS
VL: DIQLTQSPSSLSASVGDRVTITCRASQSISSYLNWYQQKPGKAPKLLIYAASSLQSGVPSRFSGSGSGTDFTLTISSLQPEDFATYYCQQVLHTITFGGGTKVEIK
IC50 [1]: 0.33 nM
EC50 [2]: 0.07 nM

B16: 42Y073-86F08-3 (antibody, V domains shown)
VH: QVQLVQSGAEVKKPGSSVKVSCKASGGTFVNYAISWVRQAPGQGLEWMGGIIPALGTANYAQKFQGRVTITADESTSTAYMELSSLRSEDTAVYYCARGAGYYGDKDPMDVWGQGTTVTVSS
VL: DIQLTQSPSSLSASVGDRVTITCRASQSISSYLNWYQQKPGKAPKLLIYAASSLQSGVPSRFSGSGSGTDFTLTISSLQPEDFATYYCQQVLHTITFGGGTKVEIK
notes: Fully human antibody
IC50 [1]: 0.28 nM
EC50 [2]: 0.04 nM
